Source: the supplement of paper PMC6757056
± gives the standard deviation of the averaged measurements.

B1: library; a variant is named by its letters at N, in order (parent)
chain: GCUGUCACCGGUGUAUUACCCUAGUGGUCGACCGGUCUGAUGAGUCUNNNNNNAGACGAAACAGC

Columns and labels:
hypoxanthine [1] = variants of: B1; assay: normalized RNA/DNA level with ligand (relative to sTRSVctl = 100) (log10 (% of sTRSVctl)); ligand: hypoxanthine (xanthine aptamer); higher = less ribozyme self-cleavage, higher mRNA level; conditions: ligand concentration (+) RNA-Seq: 5 mM, HEK293T, reporter: mCherry (pCS4076), ligand present: yes
Procedure, shortened: (§1)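 Ribozyme switch library plasmids with mCherry reporters (eGFP in certain ligand experiments) went into HEK293T cells at 4 µg per 6-well well. Where ligand was used, it was applied 1 h before transfection, and total RNA was extracted with EDTA 72 h later for reverse transcription, amplification, barcoding and sequencing. RNA level is the RNA-to-DNA read ratio normalized to a spiked-in non-cleaving sequence or to the leading sequences, then scaled and log-transformed. Scaling was ×100 with log10, the leading set comprised 25 sequences, and the cutoff was ≥100 DNA reads.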

hypoxanthine [2] = variants of: B1; assay: normalized RNA/DNA level without ligand (relative to sTRSVctl = 100) (log10 (% of sTRSVctl)); ligand: hypoxanthine (xanthine aptamer); higher = less ribozyme self-cleavage, higher mRNA level; conditions: HEK293T, reporter: mCherry (pCS4076), ligand present: no
Procedure, shortened: as §1

Variant | normalized RNA/DNA level with ligand (log10) (hypoxanthine [1]) | normalized RNA/DNA level without ligand (log10) (hypoxanthine [2])
GCUGUCACCGGUGUAUUACCCUAGUGGUCGACCGGUCUGAUGAGUCUGUCUUGAGACGAAACAGC [GUCUUG] | 1.9 ± 0.086 | 1.52 ± 0.066
GCUGUCACCGGUGUAUUACCCUAGUGGUCGACCGGUCUGAUGAGUCUGUCUUAAGACGAAACAGC [GUCUUA] | 1.932 ± 0.0061 | 1.87 ± 0.021
GCUGUCACCGGUGUAUUACCCUAGUGGUCGACCGGUCUGAUGAGUCUCUCUGUAGACGAAACAGC [CUCUGU] | 1.963 ± 0.0084 | 1.94 ± 0.028
GCUGUCACCGGUGUAUUACCCUAGUGGUCGACCGGUCUGAUGAGUCUCUCUGGAGACGAAACAGC [CUCUGG] | 1.937 ± 0.0091 | 1.75 ± 0.084
GCUGUCACCGGUGUAUUACCCUAGUGGUCGACCGGUCUGAUGAGUCUGUCUGCAGACGAAACAGC [GUCUGC] | 1.92 ± 0.038 | 1.707 ± 0.0074
GCUGUCACCGGUGUAUUACCCUAGUGGUCGACCGGUCUGAUGAGUCUGUCUGGAGACGAAACAGC [GUCUGG] | 1.878 ± 0.016 | 1.48 ± 0.0028
GCUGUCACCGGUGUAUUACCCUAGUGGUCGACCGGUCUGAUGAGUCUGUCUGUAGACGAAACAGC [GUCUGU] | 1.948 ± 0.018 | 1.841 ± 0.015
GCUGUCACCGGUGUAUUACCCUAGUGGUCGACCGGUCUGAUGAGUCUGUCUGAAGACGAAACAGC [GUCUGA] | 1.954 ± 0.0094 | 1.79 ± 0.03
GCUGUCACCGGUGUAUUACCCUAGUGGUCGACCGGUCUGAUGAGUCUAUGAGCAGACGAAACAGC [AUGAGC] | 1.8938 ± 0.00087 | 1.57 ± 0.055
GCUGUCACCGGUGUAUUACCCUAGUGGUCGACCGGUCUGAUGAGUCUAUGACCAGACGAAACAGC [AUGACC] | 1.914 ± 0.019 | 1.902 ± 0.016
GCUGUCACCGGUGUAUUACCCUAGUGGUCGACCGGUCUGAUGAGUCUAUGACUAGACGAAACAGC [AUGACU] | 1.95 ± 0.024 | 1.829 ± 0.016
GCUGUCACCGGUGUAUUACCCUAGUGGUCGACCGGUCUGAUGAGUCUAUCUGUAGACGAAACAGC [AUCUGU] | 1.91 ± 0.026 | 1.787 ± 0.014
GCUGUCACCGGUGUAUUACCCUAGUGGUCGACCGGUCUGAUGAGUCUAUCUGCAGACGAAACAGC [AUCUGC] | 1.97 ± 0.04 | 1.88 ± 0.022
GCUGUCACCGGUGUAUUACCCUAGUGGUCGACCGGUCUGAUGAGUCUUUCUGCAGACGAAACAGC [UUCUGC] | 1.998 ± 0.019 | 1.92 ± 0.049
GCUGUCACCGGUGUAUUACCCUAGUGGUCGACCGGUCUGAUGAGUCUUUCUGAAGACGAAACAGC [UUCUGA] | 2.03 ± 0.036 | 1.834 ± 0.0034
GCUGUCACCGGUGUAUUACCCUAGUGGUCGACCGGUCUGAUGAGUCUUUCUGUAGACGAAACAGC [UUCUGU] | 1.947 ± 0.0095 | 1.883 ± 0.018
GCUGUCACCGGUGUAUUACCCUAGUGGUCGACCGGUCUGAUGAGUCUCUCUUGAGACGAAACAGC [CUCUUG] | 1.93 ± 0.045 | 1.87 ± 0.044
GCUGUCACCGGUGUAUUACCCUAGUGGUCGACCGGUCUGAUGAGUCUCUCUUUAGACGAAACAGC [CUCUUU] | 2 ± 0.0092 | 1.912 ± 0.014
GCUGUCACCGGUGUAUUACCCUAGUGGUCGACCGGUCUGAUGAGUCUCUCUUAAGACGAAACAGC [CUCUUA] | 1.895 ± 0.0051 | 1.825 ± 0.012
GCUGUCACCGGUGUAUUACCCUAGUGGUCGACCGGUCUGAUGAGUCUCUGACUAGACGAAACAGC [CUGACU] | 1.99 ± 0.038 | 1.9 ± 0.072
GCUGUCACCGGUGUAUUACCCUAGUGGUCGACCGGUCUGAUGAGUCUCUGACGAGACGAAACAGC [CUGACG] | 1.89 ± 0.057 | 1.86 ± 0.074
